The assay deals with human PD-L1 expressed on cell surface (human) (UniProt Q9NZQ7). The assay is described as follows: cell-based or functional assay.
Chain of human PD-L1 expressed on cell surface (human) (Q9NZQ7 19-290 limits assumed): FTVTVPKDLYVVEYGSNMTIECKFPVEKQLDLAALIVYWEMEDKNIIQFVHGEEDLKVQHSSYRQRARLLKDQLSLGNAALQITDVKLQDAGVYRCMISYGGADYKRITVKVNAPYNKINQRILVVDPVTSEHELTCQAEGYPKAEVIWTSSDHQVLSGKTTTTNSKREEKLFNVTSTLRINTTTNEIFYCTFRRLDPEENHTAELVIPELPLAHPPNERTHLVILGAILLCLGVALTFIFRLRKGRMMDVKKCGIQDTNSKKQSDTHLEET

For “Atezolizumab analogue (BioIntron) (antibody)”, the IC50 (nM), Promega PD-1/PD-L1 blockade reporter assay, another assay amounted to 0.33 nM.
Consider “SGN-PD-L1 analogue anti-PD-L1 antibody (BioIntron)”, for which the IC50 (nM), Promega PD-1/PD-L1 blockade reporter assay, another assay amounted to 0.68 nM.

For the origin of these results see patent US20250171542A1.
